# According to the DeepSol protein solubility set:
# Assay: soluble on expression in E. coli; label from the status in PepcDB or PDB records
row,Sequence,soluble on expression in E. coli
1,MSSSPTSSSSGSPSSHGHRSETEKQRRDDTNDLLNEFKKIVQKSESEKLSKEEVLFRIVKLLSGIQLHHESFSTSPGPIRSIKKIKSDREQVRRNKRVAAYRELRKFIALNNLSSSEEIDKMENLKVLEIIFEVIRGKSITCTVPCLPFPILPFLPVFPVYSPLVFNSYNQFSLYPPHMPTVQIPIVPSSSFEIDALEIEENEKDIDIVG,soluble
2,MSSTKKDIKVYVNYRDEYAEPKIISALKNSGKELTFTNSAKEANFQWAQYEDIDFDEVYKNPKTKLCCSYVIRKALIRKEYLWRTVITYLAKHPDSILSKSVPEAYSLELDYAEFLDDSLMEAYELRQELEENATKNISEKQWYILKPSMCDRAQGIRLFSTIEELQAIFDSFDDEESESEEAGLEEKGDITVAFNNKIVISQIRNFLVQKYISKPLLLDHRKFHIRAYVLATGALSVYLFNEMLCLLARDKYKKPTPDPDLLFSHLSNTCLQGDNVEQSSIRDFWNTSIENKDDIFKSILNIIGDVFEAAATTQGIHFQPLENCFEIFGVDFLVDCESQVYLLEVNSYPDFKQTGKNLSNIIENLFSAVVETAIIPFFESSTKRNVDSKLTLAKKLQLFGFR,soluble
3,MSSVYDFNVKNANGDDVSLSDYKGKVLIIVNVASQCGLTNKNYTQLKELLDVYKKDGLEVLAFPCNQFAGQEPSCEIDIQAFVADKFKFEPTLFQKIDVNGDKQSPLFKFLKNEKGGFMFDAIKWNFTKFLVGRDGKIIKRFGPTTDPKDMEKDIKEALGEKL,not soluble
4,MSTAPLENAPTPGGARFTKIYDEDGEHIITRDEHKGLEWTAHALDSRHAAGFGNLLRRSGAKKVCRELTLGGHTDWRVPEIEEAMSIGLVDTCWPANETWFWTCTPCEQEPENKAWAFEFGTGNKRIEDRRIWLHVRAVRGQMRTDATATPKAGESLEHHHHHH,soluble
5,MSTATKVGAVIITMGNRPDELRALLDSVAKQDGDRVEVVVVGNGSPVPDVPAGVRTVELPENLGIPGGRNVGIEAFGPGGTDVDILLFLDDDGLLAHHDTAELCRQAFTADPELGIISFRIADPDTGETQRRHVPRLRASDPMRSSRVTTFLGGANAVRTKVLAEVGGLPDEFFYAHEETDLAWRALDAGWMIDYRSDMVLYHPTTAPSRHAVYHRMVARNRVWLARRNLPAPLVPVYLGVWLLLTLARRPSGPALKAWFGGFKEGWTSPCGPRRPMKWRTVWRLTRLGRPPVILEHHHHHH,not soluble
6,MSTDNLLQPKLIEATLGDYPVIQNMARFYVYDMSRYCGFISEEWTCPPDGLYESYDFKIYFTDPERKAFLIQIDNELAGFALLNKFGIQAVDWSMGEFFILAKFQGKGIGQSVAHQLWRTHPGEWEISVIPENIPALSFWRQAVMTYTL,not soluble
7,MSTEHLTPELLRLADSTPGFMPEDEGTALHEAAMQYLPPGGVGVEIGTYCGRSTIYLGAAAKARAARIVTIDHHHGSEEHQPGWEYHEPAFVDPHTGLLDTVGRFRHTMADSGLEDYVVGVLGRSSTVATFWRTPVHFVFIDGGHTSEAASADLEGWAPWVNVGGALVIHDVFPDPADGGRPPFEIYERALATGQFKETSVTGSLRVLERVGGQTGEPLA,not soluble
8,MSTEIKTQVVVLGAGPAGYSAAFRCADLGLETVIVERYNTLGGVCLNVGCIPSKALLHVAKVIEEAKALAEHGIVFGEPKTDIDKIRTWKEKVINQLTGGLAGMAKGRKVKVVNGLGKFTGANTLEVEGENGKTVINFDNAIIAAGSRPIQLPFIPHEDPRIWDSTDALELKEVPERLLVMGGGIIGLEMGTVYHALGSQIDVVEMFDQVIPAADKDIVKVFTKRISKKFNLMLETKVTAVEAKEDGIYVTMEGKKAPAEPQRYDAVLVAIGRVPNGKNLDAGKAGVEVDDRGFIRVDKQLRTNVPHIFAIGDIVGQPMLAHKGVHEGHVAAEVIAGKKHYFDPKVIPSIAYTEPEVAWVGLTEKEAKEKGISYETATFPWAASGRAIASDCADGMTKLIFDKESHRVIGGAIVGTNGGELLGEIGLAIEMGCDAEDIALTIHAHPTLHESVGLAAEVFEGSITDLPNPKAKKK,soluble
9,MSTENAHLQKEDIVIESWLHKKGEHIRNWRPRYFILFRDGTLLGFRSKPKEDQPLPEPLNNFMIRDAATVCLDKPRPNMFIVRCLQWTTVIERTFYADSADFRQMWIEAIQAVSSHNRLKENAGNTSMQEEDTNGNPSGESDVNMDATSTRSDNDFESTVMNIDEPEEVPRKNTVTMDDFDFLKVLGQGTFGKVILCREKSSDKLYAIKIIRKEMVVDRSEVAHTLTENRVLYACVHPFLTLLKYSFQAQYHICFVMEFANGGELFTHLQRCKTFSEARTRFYGSEIILALGYLHHRNIVYRDMKLENLLLDRDGHIKITDFGLCKEEIKYGDKTSTFCGTPEYLAPEVIEDIDYDRSVDWWGVGVVMYEMMCGRLPFSAKENGKLFELITTCDLKFPNRLSPEAVTLLSGLLERVPAKRLGAGPDDAREVSRAEFFKDVDWEATLRKEVEPPFKPNVMSETDTSFFDRVRYVSILLKVSEAI,not soluble
10,MSTESSHQVHTATVPVRWTDFDRFGHVTNSAYVDLAQEARTVWANDNFAVKGHQIPAVFVRHIEVDYLRPIMPSTSQVVVETEVVHIGNTSFTTRQHLKDGEGHVCATVIAVQVAVDMLTTRPRAIAAHELQVLTQFAASTQQESEQ,not soluble
11,MSTILSLAPQNVWKHFYSLTQIPRPSGHMEKVTEFLINFGKGLGLESFVDEAGNVIIRKPATPGMENRKGVILQAHMDMVPQKNNDTVHDFEKDPIETYIDGDWVKAKGTTLGADNGLGVAAIMAVLEANDLKHGPLEALITKDEETGMYGAFGLKPGTVNGEILLNLDSEDEGELYIGCAGGMDVTATLEYKEVAPEEGDVAVKVSLKGLRGGHSGLEINEGRANANKLLVRFVREAVASYEARLVSWDGGNMRNAIPREACAVLAIPAENEEELLGLVKYCEDLFNEEFSAIETPISFTAERVELPAGEVPEEIQDNLIDAIFACQNGVTRMIPTVPDTVETSSNLAIITIGGGKAEIKILARSSSDSMKEYLTTSLESCFSMAGMKVEMTGGYSGWQPNVESPILHAMKESYKQQFGVEPAVKVIHAGLECGIIGAIIPGLDMISFGPTLRSPHSPDERALIPTVQKFYDFLVATLAQTPTKLEHHHHHH,soluble
12,MSTLRLLISDSYDPWFNLAVEECIFRQMPATQRVLFLWRNADTVVIGRAQNPWKECNTRRMEEDNVRLARRSSGGGAVFHDLGNTCFTFMAGKPEYDKTISTSIVLNALNALGVSAEASGRNDLVVKTVEGDRKVSGSAYRETKDRGFHHGTLLLNADLSRLANYLNPDKKKLAAKGITSVRSRVTNLTELLPGITHEQVCEAITEAFFAHYGERVEAEIISPNKTPDLPNFAETFARQSSWEWNFGQAPAFSHLLDERFTWGGVELHFDVEKGHITRAQVFTDSLNPAPLEALAGRLQGCLYRADMLQQECEALLVDFPEQEKELRELSAWMAGAVR,soluble
13,MSTNKRRTIQIEITEEHFKDLEKALEALKGTQLPFSTTVEQFVELILSNYVATSNKISNLAESGFDVASIQQELEKIGSAAGADDALKSFLDELLKTSQKSFSNTKDGKKNDDDNNSSSKS,soluble
14,MSTPFGLDLGNNNSVLAVARNRGIDIVVNEVSNRSTPSVVGFGPKNRYLGETGKNKQTSNIKNTVANLKRIIGLDYHHPDFEQESKHFTSKLVELDDKKTGAEVRFAGEKHVFSATQLAAMFIDKVKDTVKQDTKANITDVCIAVPPWYTEEQRYNIADAARIAGLNPVRIVNDVTAAGVSYGIFKTDLPEGEEKPRIVAFVDIGHSSYTCSIMAFKKGQLKVLGTACDKHFGGRDFDLAITEHFADEFKTKYKIDIRENPKAYNRILTAAEKLKKVLSANTNAPFSVESVMNDVDVSSQLSREELEELVKPLLERVTEPVTKALAQAKLSAEEVDFVEIIGGTTRIPTLKQSISEAFGKPLSTTLNQDEAIAKGAAFICAIHSPTLRVRPFKFEDIHPYSVSYSWDKQVEDEDHMEVFPAGSSFPSTKLITLNRTGDFSMAASYTDITQLPPNTPEQIANWEITGVQLPEGQDSVPVKLKLRCDPSGLHTIEEAYTIEDIEAGSDTKTVKKDDLTIVAHTFGLDAKKLNELIEKENEMLAQDKLVAETEDRKNTLEEYIYTLRGKLEEEYAPFASDAEKTKLQGMLNKAEEWLYDEGFDSIKAKYIAKYEELASLGNIIRGRYLAKEEEKKQAIRSKQEASQMAAMAEKLAAQRKAEAEKKEEKKDTEGDVDMD,soluble
15,MSTSCFPDVPLELTTRHPRPLQACPERHSQSTHDSLGIWVKRREEKPMERMSKDYDIVQIPRDVGYSDLPRKMEVGKPFEINGSVYVCEKRGGEIMKICSEDSGRTGVPVLNKGFYVVRRM,not soluble
16,MSTTTDYDDNDVKIITKPVQSKNPVLIEGFPGIGLVGNIASQHIIEELNMEYIGSIDSRYFPSIAVLYEGLINMPVRIYENVEHNLIIVISDIPISHSVSYDVSNALVDWAEAINVKEIASIAGIAIMDGGHKVFGAATTPEMLDKIRDKVEIFQMGTISGISGSVMAECLLRGIPAISLLGATRTQNPDPRAASSVIGVLNELYGLSISTDRLIEQAERIEIELQRLAEDVQATERKGEVKKEFPMYG,soluble
17,MSTTVEKIKAIEDEMARTQKNKATSFHLGQLKAKLAKLRRELLTSASSGSGGGAGIGFDVARTGVASVGFVGFPSVGKSTLLSKLTGTESEAAEYEFTTLVTVPGVIRYKGAKIQMLDLPGIIDGAKDGRGRGKQVIAVARTCNLLFIILDVNKPLHHKQIIEKELEGVGIRLNKTPPDILIKKKEKGGISITNTVPLTHLGNDEIRAVMSEYRINSAEIAFRCDATVDDLIDVLEASSRRYMPAIYVLNKIDSLSIEELELLYRIPNAVPISSGQDWNLDELLQVMWDRLNLVRIYTKPKGQIPDFTDPVVLRSDRCSVKDFCNQIHKSLVDDFRNALVYGSSVKHQPQYVGLSHILEDEDVVTILKK,soluble
18,MSTYEGRWKTVKVEIEDGIAFVILNRPERRNAMSPTLNREMIDVLETLEQDPAAGVLVLTGAGEAWTAGMDLKEYFREVDAGPEILQEKIRREASQWQWKLLRMYAKPTIAMVNGWCFGGGFAPLVACDLAICADEATFGLSEINWGIPPGNLVSKAMADTVGHRQSLYYIMTGKTFGGQKAAEMGLVNESVPLAQLREVTIELARNLLEKNPVVLRAAKHGFKRCRELTWEQNEDYLYAKLDQSRLLDTEGGREQGMKQFLDDKSIKPGLQAYKR,soluble
19,MSTYYQSAPVLVHAHAYQPPLSPPQSPPHGYLPFYTSNPMMCSTSPLYFSPQMVQPLPPQQHYHMYPSTSAGPGMYYTDFNPHYVQIQISQSVSHDKILAGGPKDNCTVARGRKTHVDHRQLSIEKLHPLLLQFKLTTSELETNAYPMRRDGSTKAVSIADTVYTQNKKMFLDDYDMSRNCSRCNKEFKLSPNGTMIRSTGICRYHNRGVAINGKRDTFRKRYSCCNEEFNVALGCKFSDVHVTDQLFKKELSTFVSTPVPVPNDQRSTRVYALDCEMVYTIAGPALARLTMVDMQRNRVLDVFVKPPTDVLDPNTEFSGLTMEQINSAPDTLKTCHQKLFKYVNADTILIGHSLESDLKAMRVVHKNVIDTAILFRSTRDTKVALKVLSAKLLHKNIQGDNEDAIGHDSMEDALTCVDLIFYGLRNPESIAIREANTNC,not soluble
20,MSVDSLPTLFQWARDNLLKEEALAISALEELPIHLFPEMFKVAFTDRHTKVLIAMVSAWPFPCLPVGTLIEDPHLETLKAVLDGLNVLVTGKVHSSRCKLRVLDLRRNVHHDFWSIQTGSHEDNCPAQIVAQKQPVETCPNPRREIPFMVVTDFELTQESFDEWTIYLMQWIQERKSSIHLCCRKLNSCASPVSNVIEIFKLVDLNCILELQLSQWWPEVLEELDPYLEGMNNLHTLMLEGLKPFRFTACEEDQEDEWQSTLPSLLSNFGSLQNLYLNDIYLLEDSLDKWLGCLKTPLKTLSITDCPRLLQSDFECLPNCPNICKLKHLNLNALFLSDVGYEIPGLILEKVTSTLQILELERCGMTDPHFKALMPALSKCSQLLKVSFCHNDISLRVLKTLLCHTAKLSQLTQELYPAPQECYEDYKILKDRFKKLCPELLNILKAKRQPKKVSFTTQTCLKCLHSCHYYYNLEATDCLCQCICQ,not soluble
